In data set [1] the target is T1, La (LARP3, La/SSB), recombinant His-tagged wildtype (human, UniProt P05455 1-408).
T1 sequence: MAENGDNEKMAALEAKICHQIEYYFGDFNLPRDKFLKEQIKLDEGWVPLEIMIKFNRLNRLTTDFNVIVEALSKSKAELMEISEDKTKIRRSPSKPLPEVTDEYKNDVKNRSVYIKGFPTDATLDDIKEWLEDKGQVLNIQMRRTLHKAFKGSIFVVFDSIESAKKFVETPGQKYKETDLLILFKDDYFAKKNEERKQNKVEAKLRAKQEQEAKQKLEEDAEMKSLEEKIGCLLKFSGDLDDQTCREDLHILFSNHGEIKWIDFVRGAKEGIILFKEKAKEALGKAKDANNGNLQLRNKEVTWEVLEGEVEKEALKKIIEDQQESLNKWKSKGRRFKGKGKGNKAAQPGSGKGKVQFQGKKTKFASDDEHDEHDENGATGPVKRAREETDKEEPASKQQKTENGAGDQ
Briefly: EMSA; 25 nM RNA, 0-600 nM La; EMSA and FP: 25 nM FAM-RNA, 0-600 nM La; competition FP: 200 nM La; buffer, salt, pH and temperature not given (cited to ref 21). As to conditions: protein: recombinant; tags: His; label: 5' 6-FAM; stem-loop embedding the AUG (mfold). A general note: Mobility shift assays separate free from complexed probe on a gel.

The target of data set [2] is T1, La (LARP3, La/SSB), recombinant …. The data set can be described thus: fluorescence polarization; 25 nM RNA; EMSA and FP: 25 nM FAM-RNA, 0-600 nM La; competition FP: 200 nM La; buffer, salt, pH and temperature not given (cited to ref 21). Conditions: protein: recombinant; tags: His; label: 5' 6-FAM; stem-loop embedding the AUG (mfold). In general terms: Fluorescence polarisation rises when a labelled molecule tumbles more slowly, as on binding a larger partner.

B1: Bcl2_WT RNA oligonucleotide, FAM-labeled (-24 to +15) (structured_RNA)
RNA: CCCGUUGCUUUUCCUCUGGGAAGGAUGGCGCACGCUGGG
As for B1, the Kd turned out to be 50.5 ± 5.9 nM in data set [1] and 60.1 ± 4.5 nM in data set [2].

What is called Kd is the equilibrium constant for the complex coming apart.

(Values after PMC5045424, “The La protein counteracts cisplatin-induced cell death by stimulating protein synthesis of anti-apoptotic factor Bcl2”.)
